Test results reported in patent US20050170334A1.

Key:
Assay in all cases: ELISA, peptide coated, antibody 10 µg/ml
NM15 (influenza A virus) = target: NM15 (influenza A virus)
NM16 (influenza A virus) = target: NM16 (influenza A virus)
[1] = target: M2 peptide (extracellular 23-amino-acid M2 peptide) (influenza A virus)
NM17 (influenza A virus) = target: NM17 (influenza A virus)
M16 (influenza A virus) = target: M16 (influenza A virus)
M15 (influenza A virus) = target: M15 (influenza A virus)

B1: C40G1 (antibody, V domains shown)
VH: QLQLQESGPGLVKPSETLSLTCTVSGGSISSSFYYCGWIRQPPGKGLEWIGSIYYRGSTYYNPSLKSRVTISVDTSKNQFSLKLSSVTAADTAVYYCARRVTMVRGVKGDYFDYWGQGTLVTVSS
VL: DIQMTQSPSSLSASVGDRVTITCRASQGISSWLAWYQQKPEKVPKSLIYAASSLQSGVPSRFSGSGSGTDFTLTISSLQPEDFATYYCQQYNYYPLTFGGGTKVEIKR
NM15 (influenza A virus)
  ELISA (OD450): 2.51 OD450
NM16 (influenza A virus)
  ELISA (OD450): 2.37 OD450
[1]
  ELISA (OD450): 2.56 OD450
NM17 (influenza A virus)
  ELISA (OD450): 2.41 OD450
M16 (influenza A virus)
  ELISA (OD450): 2.64 OD450
M15 (influenza A virus)
  ELISA (OD450): 2.73 OD450
